Test results reported in patent US7919262B2, “14-3-3 proteins for diagnosis of Parkinson's disease” (The UAB Research Foundation, priority 2007, dated 2011).

B1: 14-3-3θ: 14-3-3 polypeptide θ isoform, overexpressed from V5/His-tagged pcDNA3.1 vector (or as transgene in C. elegans) (protein, UniProt P27348 1-245, looked up)
14-3-3 protein theta: MEKTELIQKAKLAEQAERYDDMATCMKAVTEQGAELSNEERNLLSVAYKNVVGGRRSAWRVISSIEQKTDTSDKKLQLIKDYREKVESELRSICTTVLELLDKYLIANATNPESKVFYLKMKGDYFRYLAEVACGDDRKQTIDNSQGAYQEAFDISKKEMQPTHPIRLGLALNFSVFYYEILNNPELACTLAKTAFDEAIAELDTLNEDSYKDSTLIMQLLRDNLTLWTSDSAGEECDAAEGAEN
modifications: V5/His tag
B2: 14-3-3ζ: 14-3-3 polypeptide ζ isoform, overexpressed from expression vector (protein, UniProt P63104 1-245, looked up)
14-3-3 protein zeta/delta: MDKNELVQKAKLAEQAERYDDMAACMKSVTEQGAELSNEERNLLSVAYKNVVGARRSSWRVVSSIEQKTEGAEKKQQMAREYREKIETELRDICNDVLSLLEKFLIPNASQAESKVFYLKMKGDYYRYLAEVAAGDDKKGIVDQSQQAYQEAFEISKKEMQPTHPIRLGLALNFSVFYYEILNSPEKACSLAKTAFDEAIAELDTLSEESYKDSTLIMQLLRDNLTLWTSDTQGDEAEAGEGGEN

Tests used:
H4 cells = test: α-syn toxicity assay, adenylate kinase released into the media; type: cell-based; settings: co-transfected with wildtype α-syn; 24 hours after transfection; vs empty vector
Experimental: Briefly, H4 cells were transfected with wildtype α-syn and each of the 14-3-3 polypeptide isoforms or empty vector controls as discussed above. Twenty-four hours after transfection, cell death was assayed by adenylate kinase activity in the media (n=4, *p<0.05, **p<0.01, ***p<0.001).
Primers against each of the human 14-3-3 isoforms were designed using Primer3. Primers against 14-3-3β (NM_018753) were 5′ […] 3′ (forward; SEQ ID NO. 9) and 5′ […] 3′ (reverse; SEQ ID NO. 10). Primers against 14-3-3ε (NM_009536) were 5′ […] 3′ (forward; SEQ ID NO. 11) and 5′ […] 3′ (reverse; SEQ ID NO. 12). Primers against 14-3-3γ (NM_018871) were 5′ […] 3′ (forward; SEQ ID NO. 13) and 5′ […] 3′ (reverse; SEQ ID NO. 14). Primers against 14-3-3η (NM_011738) were 5′ […] 3′ (forward; SEQ ID NO. 15) and 5′ […] 3′ (reverse; SEQ ID NO. 16). Primers against 14-3-3θ (NM_011739) were 5′ […] 3′ (forward; SEQ ID NO. 17) and 5′ […] 3′ (reverse; SEQ ID NO. 18). Primers against 14-3-3σ (NM_018754) were 5′ […] 3′ (forward; SEQ ID NO. 19) and 5′ […] 3′ (reverse; SEQ ID NO. 20). Primers against 14-3-3ζ(NM_011740) were 5′ […] 3′ (forward; SEQ ID NO. 21) and 5′ […] 3′ (reverse; SEQ ID NO. 22). Primers against GAPDH were 5′ tggtgaagcaggeatctga 3′ (forward; SEQ ID NO. 23) and 5′ […] […] All cells stained for α-syn were scored as positive or negative for α-syn aggregates, with the rater blind to experimental condition. • α-syn toxicity assay H4 cells were transfected with α-syn and either empty vector control or a 14-3-3 isoform using Superfect transfection reagent (Qiagen). 24 hours after transfection, toxicity was measured by the amount of adenylate kinase released into the media using the ToxiLight™ kit (Cambrex). • Creation of stable cell lines Each 14-3-3 isoform was subcloned into the mammalian expression vector mcDNA3.1/V5-His (Invitrogen). […] Protein concentrations of supernatants were determined by the bicinchoninic acid assay (BCA; Pierce, Rockford, Ill.). […]

naïve M17 cells = test: Rotenone toxicity after transient transfection, scoring of apoptotic nuclei; type: cell-based, human; settings: rotenone 0, 0.2 or 1 μM for 24 hours, vs control transfection
Experimental: FIGS. 6A-D show M17 cells overexpressing 14-3-3θ are resistant to rotenone treatment. Cell lines stably-transfected with either 14-3-3θ or empty vector were treated with varying concentrations of rotenone (0-25 μM) for 24 hours (FIG. 6A), 30 hours (FIG. 6B), or 48 hours (FIG. 6C). Cell death was assayed by LDH release into the culture media. LDH release into media was normalized to total LDH release for each well. The 14-3-3θ-overexpressing line was more resistant to rotenone in a dose-dependent manner compared to control stable cells at all time points tested. […] Rater was blind to experimental condition. n=8 for each experimental condition. *p<0.05, ***p<0.001 (Bonferroni's multiple comparison test).
The effects of 14-3-3θ overexpression on rotenone toxicity was also examined by transient transfection of this isoform into naïve M17 cells. Briefly, M17 cells were transfected with V5-tagged 14-3-3θ isoform or enhanced yellow fluorescent protein (EYFP) (control) and were treated with rotenone for 24 hours at 0, 0.2, or 1 μM rotenone. Because of the relatively low rates of transfection, after the treatment period cells were fixed and stained against V5 (or GFP in the case of control), followed by Hoechsht 33342 staining. With the rater blind to experimental condition, the nuclei of cells that stained for V5 or GFP were scored as normal or apoptotic.

[1] = tested on: Transgenic C. elegans worms that overexpress human wildtype α-syn; test: Dopaminergic neuron loss in α-syn transgenic worm model; type: in vivo; settings: human 14-3-3θ overexpressed along with α-syn
Description: FIG. 10. Overexpression of 14-3-3θ protects against dopaminergic cell loss in the α-syn transgenic C. elegans worm model. Double transgenic worms were created in which the 14-3-3θ isoform was overexpressed along with α-syn.
We turned to the C. elegans model of PD, in which human wildtype α-syn is overexpressed. […] Double transgenic worms were created in which the 14-3-3θ isoform was overexpressed along with α-syn. […] In contrast, 18.9% of worms that overexpressed human 14-3-3θ along with α-syn had all six dopaminergic neurons at seven days (FIG. 10; p<0.001 compared to α-syn worms). 12.9% of worms had the full anterior complement of dopaminergic neurons at 10 days (FIG. 10; p<0.00001).

Molecule	effect on α-syn dependent cell death (adenylate kinase activity in the media) (H4 cells)	cell death (apoptotic nuclei) in response to rotenone treatment (naïve M17 cells)	worms with the full anterior complement of dopaminergic neurons ([1]; 10 days)	worms with all six anterior dopaminergic neurons present ([1]; seven days)
B1	protective effects	decreased cell death	12.9%	18.9%
B2	protective effects			
